No end group written: not given here.
How the values were obtained:
[1] = target: T1, 14-3-3 protein beta/alpha (human, UniProt P31946 1-246); experiment: PIF-agarose affinity extraction, liver lysate column of Table 4
T1 sequence (looked up): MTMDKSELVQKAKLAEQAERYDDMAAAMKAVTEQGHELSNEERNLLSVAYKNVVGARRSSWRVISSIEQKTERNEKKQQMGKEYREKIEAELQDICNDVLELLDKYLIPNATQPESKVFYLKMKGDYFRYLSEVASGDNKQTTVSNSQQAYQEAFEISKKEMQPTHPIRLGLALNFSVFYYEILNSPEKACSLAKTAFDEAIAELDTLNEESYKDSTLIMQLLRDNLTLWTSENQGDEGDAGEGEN

[2] = target: Isoform 2 of Tropomyosin beta chain (human, UniProt P07951-2 1-284); experiment: as above
14-3-3 protein theta = target: T2, 14-3-3 protein theta (human, UniProt P27348 1-245); experiment: as above
T2 sequence (looked up): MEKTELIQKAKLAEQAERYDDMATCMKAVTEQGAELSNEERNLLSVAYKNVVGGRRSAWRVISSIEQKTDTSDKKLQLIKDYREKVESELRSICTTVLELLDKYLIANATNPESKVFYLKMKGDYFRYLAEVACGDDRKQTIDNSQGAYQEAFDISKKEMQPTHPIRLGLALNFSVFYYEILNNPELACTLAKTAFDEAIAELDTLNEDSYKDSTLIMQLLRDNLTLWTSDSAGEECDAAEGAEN

PRDX4 = target: T3, PRDX4 (human, UniProt Q13162 38-271); experiment: as above
T3 sequence (looked up): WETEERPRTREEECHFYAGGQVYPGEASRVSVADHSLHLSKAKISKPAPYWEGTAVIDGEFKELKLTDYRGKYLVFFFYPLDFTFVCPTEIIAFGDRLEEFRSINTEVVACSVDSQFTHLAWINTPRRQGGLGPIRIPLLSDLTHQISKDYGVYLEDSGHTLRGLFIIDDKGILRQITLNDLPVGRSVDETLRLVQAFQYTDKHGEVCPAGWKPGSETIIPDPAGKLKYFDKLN

[3] = target: Isoform 2 of Tropomyosin alpha-3 chain (human, UniProt P06753-2 2-248); experiment: as above
[4] = target: T4, 14-3-3 protein zeta/delta (human, UniProt P63104 1-245); experiment: as above
T4 sequence (looked up): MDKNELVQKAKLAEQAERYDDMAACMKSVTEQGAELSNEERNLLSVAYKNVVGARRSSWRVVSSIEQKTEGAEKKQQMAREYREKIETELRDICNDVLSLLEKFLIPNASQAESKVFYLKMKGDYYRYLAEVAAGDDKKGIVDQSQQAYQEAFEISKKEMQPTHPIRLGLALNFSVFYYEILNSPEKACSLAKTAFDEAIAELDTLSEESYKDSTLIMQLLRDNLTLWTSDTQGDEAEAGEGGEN

[5] = target: T5, Serine/arginine-rich-splicing factor 2 (human, UniProt Q01130 2-221); experiment: as above
T5 sequence (looked up): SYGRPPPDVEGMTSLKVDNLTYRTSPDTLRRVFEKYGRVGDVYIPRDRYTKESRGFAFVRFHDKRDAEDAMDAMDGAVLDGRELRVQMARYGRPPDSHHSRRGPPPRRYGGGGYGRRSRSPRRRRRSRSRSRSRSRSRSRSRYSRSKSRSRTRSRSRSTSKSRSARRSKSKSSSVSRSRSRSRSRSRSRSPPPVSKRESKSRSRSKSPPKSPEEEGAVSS

[6] = target: ATP synthase subunit beta, mitochondrial (human, UniProt P06576 48-529); experiment: as above
Cofilin-1 = Cofilin-1 (human, UniProt P23528 2-166); experiment: as above
[7] = target: Isoform 2 of Tropomyosin alpha-4 chain (human, UniProt P67936-2 1-284); experiment: as above
[8] = target: Isoform 2 of Heat shock protein HSP 90-alpha (human, UniProt P07900-2 1-854, limits assumed); experiment: as above
[9] = target: T6, Elongation factor 1-alpha 1 (human, UniProt P68104 2-462); experiment: PIF-agarose affinity extraction, liver lysate column of Table 4 (row 'Eef1a1')
T6 construct: also called Eef1a1
T6 sequence (looked up): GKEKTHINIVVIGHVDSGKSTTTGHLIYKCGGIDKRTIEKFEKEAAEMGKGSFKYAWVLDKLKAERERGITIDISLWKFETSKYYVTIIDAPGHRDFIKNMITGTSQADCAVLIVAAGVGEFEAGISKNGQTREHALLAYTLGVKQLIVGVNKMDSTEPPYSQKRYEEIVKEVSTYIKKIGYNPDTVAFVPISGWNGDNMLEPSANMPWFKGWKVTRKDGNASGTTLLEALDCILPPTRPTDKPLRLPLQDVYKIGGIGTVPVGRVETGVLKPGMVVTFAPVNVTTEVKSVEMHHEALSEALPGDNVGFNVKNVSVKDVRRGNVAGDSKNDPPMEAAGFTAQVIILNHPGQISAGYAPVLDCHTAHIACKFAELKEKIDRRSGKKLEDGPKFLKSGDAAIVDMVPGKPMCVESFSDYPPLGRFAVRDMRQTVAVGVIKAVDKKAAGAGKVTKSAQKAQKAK

Measured: binding result

B1: sPIF-1(15) (peptide)
peptide: MVRIKPGSANKPSDD
modifications: also: coupled to agarose support
notes: also called synthetic preimplantation factor
binds: all assays above
